Reference: article PMC2850911

How the values were obtained:
[1] = molecular target: Entamoeba histolytica Phosphoserine aminotransferase (Entamoeba histolytica); experiment: cross-linking; glutaraldehyde cross-linking of EhPSAT incubated at pH 9, 8, 7 and 6, analysed on 10% SDS-PAGE
[2] = molecular target: Entamoeba histolytica Phosphoserine aminotransferase (Entamoeba histolytica); experiment: SEC; Superdex 200 10/300 GL column, EhPSAT at pH 6, 7, 8 and 9; calibrated with ferritin, aldolase, conalbumin and ovalbumin; also run with 200 mM NaCl or NaF

- stoichiometry N [1]: 2
- stoichiometry N [2]: 2
Substance: Entamoeba histolytica Phosphoserine aminotransferase (enzyme)
